Laboratory results: PMC11582362

Tested on: chimeric ADAR1-dsRBD3/Xlrbpa-dsRBD2 (Homo sapiens / Xenopus laevis?)
Experiment: ITC
Conditions: N = 3.05 ± 0.31; ITC: 25 mM Na-phosphate pH 7.0, 100 mM NaCl, 2 mM 2-mercaptoethanol, 25 °C; 2.25 uM dsRNA in cell, 80 uM protein in syringe

GGGAUCAAUAUGCUAAGCGAUCCC / GGGAUCGCUUAGCAUAUUGAUCCC [24 bp dsRNA duplex]
Kd: 500 nM
